Test results published in the supplement of paper PMC5998384.

Columns and labels:
[1] = system: HeLa Kyoto; assay: solubility in G1/S (NP-40 vs SDS abundance) (log2 ratio); higher = more soluble; conditions: cell cycle stage: G1/S
[2] = system: HeLa Kyoto; assay: solubility change mitosis vs G1/S (difference of NP-40 vs SDS log2 ratios) (log2 ratio difference); higher = more soluble in mitosis
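For solubility change mitosis vs G1/S (difference of NP-40 vs SDS log2 ratios) in this document: synchronized HeLa Kyoto cells (double thymidine block for G1/S, nocodazole release for mitosis), protein amounts in NP-40 versus SDS lysates quantified by mass spectrometry, three biological replicates.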
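For solubility in G1/S (NP-40 vs SDS abundance) in this document: HeLa Kyoto cells arrested at G1/S by double thymidine block, proteins quantified by TMT10plex mass spectrometry in mild NP-40 versus SDS extracts, three biological replicates.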

Substance | solubility in G1/S (log2) [1] | solubility change mitosis (log2) [2]
MGVQGFQEFLEKRCPGAVVPVDLLKLARTVSRQQQQQHLHRQLPPTAALAPGAPRAARGSVPLQPPLPPAALGAYSGGAGPTRHHHPAHHFHHHGQAQPGLHPPLPPPPPPQLPGARVLVDAGSALPRLYGGYQTDWVCGGQWNAMLGYLSALCQACAYPGGDGLELVVMFPGGLGKDRLAEWGRRCQAERQTAQLIVGHVGNKGTPPPRAWFLPPACLSHCVRLALIRFRVKVFQSLEDHHLEVVAFFRENGFHGLLAHDSEYALYNIPSYYSSHALKLSWNGKNLTTNQFLMQEVAKQLGLKRMNFPIFAALLGNHILPDEDLAAFHWSLLGPEHPLASLKVRAHQLVLPPCDVVIKAVSEYVSSIKDPSNLDVVGKDVFKQSQSRTEDKIERFKKAVEYYSVTTKLSSLPVGPSFLGFRNNRLGNPPLPRNQVGTISAGKPMFSHQVPQKVKYPPPFPVGPNSSLLFSSHALGESHAFSEDPMLQNSPFANWAVSYDSSASQFPNYLPSKASPPLGPDSSHSSSSDGDEPNGASSDHITEAFHHQPEWGNPNRDRGSWAQPVDTGVSEASLGDGEPHIPSLLSMSTRNHMDITIPPLPPVAPEVLRVAEHRHRRGLMYPYIYHVLTKGEIKIPVCIEDECNMELPPAALLFRSARQYVYGVLFSLAETQRKMERLAMRRRLPVEVPSVILKEWSAYKGKSPQTPELVSALTFREWTCPNLKKLWLGKAVEDKNRRMRAFLACMKSDTPSMLNPANVPTHLLLMCCVLRYMVQWPGGRILHRHELDTFLAQAVSTQLYEPDRLQELKIEKLDARGIQLAALFMSGVDTALFANDACGQPVPWEHCCPWIYFDGKLFQSKLIKAGRERVSLVELCDGQADLATKVEKMRQSILEGVNMNHPPPSALLPSPTFVPPMVPSLYPVSLYSRAMGSMPLPPQGRSRGFAGLHPIPPQGGKLEIAGMVVGQWAGSRSSRGRGSFGMQVVSVGGPGKGHGKEQTGRGSKGHKKGNKQGSSDGVSKSLELHQGRSRSQVNGNSGALIKEEKSDHRLPAPSQCALSRDSNECNNGNRYLPMNNREKNHLQEQKLETVAQRKED [FAM120C] | 0.0177 | -0.0292
MEEPEEPADSGQSLVPVYIYSPEYVSMCDSLAKIPKRASMVHSLIEAYALHKQMRIVKPKVASMEEMATFHTDAYLQHLQKVSQEGDDDHPDSIEYGLGYDCPATEGIFDYAAAIGGATITAAQCLIDGMCKVAINWSGGWHHAKKDEASGFCYLNDAVLGILRLRRKFERILYVDLDLHHGDGVEDAFSFTSKVMTVSLHKFSPGFFPGTGDVSDVGLGKGRYYSVNVPIQDGIQDEKYYQICESVLKEVYQAFNPKAVVLQLGADTIAGDPMCSFNMTPVGIGKCLKYILQWQLATLILGGGGYNLANTARCWTYLTGVILGKTLSSEIPDHEFFTAYGPDYVLEITPSCRPDRNEPHRIQQILNYIKGNLKHVV [HDAC8] | 0.168 | -0.213
MACSLQKLFAVEEEFEDEDFLSAVEDAENRFTGSLPVNAGRLRPVSSRPQETVQAQSSRLLLLHPTAPSEALGLPDLDLCLPASSTPSADSRPSCIGAAPLRPVSTSSSWIGNQRRVTVTEVLRETARPQSSALHPLLTFESQQQQVGGFEGPEQDEFDKVLASMELEEPGMELECGVSSEAIPILPAQQREGSVLAKKARVVDLSGSCQKGPVPAIHKAGIMSAQDESLDPVIQCRTPRPPLRPGAVGHLPVPTALTVPTQQLHWEVCPQRSPVQALQPLQAARGTIQSSPQNRFPCQPFQSPSSWLSGKAHLPRPRTPNSSCSTPSRTSSGLFPRIPLQPQAPVSSIGSPVGTPKGPQGALQTPIVTNHLVQLVTAASRTPQQPTHPSTRAKTRRFPGPAGILPHQQSGRSLEDIMVSAPQTPTHGALAKFQTEIVASSQASVEEDFGRGPWLTMKSTLGLDERDPSCFLCTYSIVMVLRKQAALKQLPRNKVPNMAVMIKSLTRSTMDASVVFKDPTGEMQGTVHRLLLETCQNELKPGSVLLLKQIGVFSPSLRNHYLNVTPNNLVHIYSPDSGDGSFLKPSQPFPKDSGSFQHDVAAKPEEGFRTAQNLEAEASPEEELPEADDLDGLLSELPEDFFCGTSS [C17ORF53] | 0.384 | 0.0975
MEEFDLVKTLHKTSSSVGSDENSLHSLGLNLNTDRSSPHLSTNGVSSFSGKTRPSVIQGTVEVLTSLMQELQNSGKTDSELWKNCETRWLQLFNLVEKQCQEQIVAQQEQFHNQIQHIQEEIKNLVKLQTSSASLASCEGNSSNKQVSSESQMGFFSLSSERNESVIHYPESTEPEIQQEMSTSQPDCNVDSCSVSSGYGTFCISELNLYKSKDPKEFMEHIDVPKGQYVAPAVPAESLVDGVKNENFYIQTPEECHVSLKEDVSISPGEFEHNFLGENKVSEVYSGKTNSNAITSWAQKLKQNQPKRAHVEDGGSRSKQGNEQSKKTPIEKSDFAAATHPRAFYLSKPDETPNAWMSDSGTGLTYWKLEEKDMHHSLPETLEKTFISLSSTDVSPNQSNTSNEMKLPSLKDIYYKKQRENKQLPERNLTSASNPNHPPEVLTLDPTLHMKPKQQISGIQPHGLPNALDDRISFSPDSVLEPSMSSPSDIDSFSQASNVTSQLPGFPKYPSHTKASPVDSWKNQTFQNESRTSSTFPSVYTITSNDISVNTVDEENTVMVASASVSQSQLPGTANSVPECISLTSLEDPVILSKIRQNLKEKHARHIADLRAYYESEINSLKQKLEAKEISGVEDWKITNQILVDRCGQLDSALHEATSRVRTLENKNNLLEIEVNDLRERFSAASSASKILQERIEEMRTSSKEKDNTIIRLKSRLQDLEEAFENAYKLSDDKEAQLKQENKMFQDLLGEYESLGKEHRRVKDALNTTENKLLDAYTQISDLKRMISKLEAQVKQVEHENMLSLRHNSRIHVRPSRANTLATSDVSRRKWLIPGAEYSIFTGQPLDTQDSNVDNQLEETCSLGHRSPLEKDSSPGSSSTSLLIKKQRETSDTPIMRALKELDEGKIFKNWGTQTEKEDTSNINPRQTETSVNASRSPEKCAQQRQKRLNSASQRSSSLPPSNRKSSTPTKREIMLTPVTVAYSPKRSPKENLSPGFSHLLSKNESSPIRFDILLDDLDTVPVSTLQRTNPRKQLQFLPLDDSEEKTYSEKATDNHVNHSSCPEPVPNGVKKVSVRTAWEKNKSVSYEQCKPVSVTPQGNDFEYTAKIRTLAETERFFDELTKEKDQIEAALSRMPSPGGRITLQTRLNQEALEDRLERINRELGSVRMTLKKFHVLRTSANL [MPHOSPH9] | -0.0212 | 0.149
MAVTLSLLLGGRVCAAVTRCGFATRGVAGPGPIGREPDPDSDWEPEERELQEVESTLKRQKQAIRFQKIRRQMEAPGAPPRTLTWEAMEQIRYLHEEFPESWSVPRLAEGFDVSTDVIRRVLKSKFLPTLEQKLKQDQKVLKKAGLAHSLQHLRGSGNTSKLLPAGHSVSGSLLMPGHEASSKDPNHSTALKVIESDTHRTNTPRRRKGRNKEIQDLEESFVPVAAPLGHPRELQKYSSDSESPRGTGSGALPSGQKLEELKAEEPDNFSSKVVQRGREFFDSNGNFLYRI [NGRN] | 0.784 | 0.276
MNFEGLDPGLAEYAPAMHSALDPVLDAHLNPSLLQNVELDPEGVALEALPVQESVHIMEGVYSELHSVVAEVGVPVSVSHFDLHEEMLWVGSHGGHATSFFGPALERYSSFQVNGSDDIRQIQSLENGILFLTKNNLKYMARGGLIIFDYLLDENEDMHSLLLTDSSTLLVGGLQNHIIEIDLNTVQETQKYAVETPGVTIMRQTNRFFFCGHTSGKVSLRDLRTFKVEHEFDAFSGSLSDFDVHGNLLAACGFSSRLTGLACDRFLKVYDLRMMRAITPLQVHVDPAFLRFIPTYTSRLAIISQSGQCQFCEPTGLANPADIFHVNPVGPLLMTFDVSASKQALAFGDSEGCVHLWTDSPEPSFNPYSRETEFALPCLVDSLPPLDWSQDLLPLSLIPVPLTTDTLLSDWPAANSAPAPRRAPPVDAEILRTMKKVGFIGYAPNPRTRLRNQIPYRLKESDSEFDSFSQVTESPVGREEEPHLHMVSKKYRKVTIKYSKLGLEDFDFKHYNKTLFAGLEPHIPNAYCNCMIQVLYFLEPVRCLIQNHLCQKEFCLACELGFLFHMLDLSRGDPCQGNNFLRAFRTIPEASALGLILADSDEASGKGNLARLIQRWNRFILTQLHQDMQELEIPQAYRGAGGSSFCSSGDSVIGQLFSCEMENCSLCRCGSETVRASSTLLFTLSYPDGSKSDKTGKNYDFAQVLKRSICLDQNTQAWCDTCEKYQPTIQTRNIRHLPDILVINCEVNSSKEADFWRMQAEVAFKMAVKKHGGEISKNKEFALADWKELGSPEGVLVCPSIEELKNVWLPFSIRMKMTKNKGLDVCNWTDGDEMQWGPARAEEEHGVYVYDLMATVVHILDSRTGGSLVAHIKVGETYHQRKEGVTHQQWYLFNDFLIEPIDKHEAVQFDMNWKVPAILYYVKRNLNSRYNLNIKNPIEASVLLAEASLARKQRKTHTTFIPLMLNEMPQIGDLVGLDAEFVTLNEEEAELRSDGTKSTIKPSQMSVARITCVRGQGPNEGIPFIDDYISTQEQVVDYLTQYSGIKPGDLDAKISSKHLTTLKSTYLKLRFLIDIGVKFVGHGLQKDFRVINLMVPKDQVLDTVYLFHMPRKRMISLRFLAWYFLDLKIQGETHDSIEDARTALQLYRKYLELSKNGTEPESFHKVLKGLYEKGRKMDWKVPEPEGQTSPKNAAVFSSVLAL [PAN2] | -0.18 | 0.206
MIRDLSKMYPQTRHPAPHQPAQPFKFTISESCDRIKEEFQFLQAQYHSLKLECEKLASEKTEMQRHYVMYYEMSYGLNIEMHKQAEIVKRLNAICAQVIPFLSQEHQQQVVQAVERAKQVTMAELNAIIGQQLQAQHLSHGHGLPVPLTPHPSGLQPPAIPPIGSSAGLLALSSALGGQSHLPIKDEKKHHDNDHQRDRDSIKSSSVSPSASFRGAEKHRNSADYSSESKKQKTEEKEIAARYDSDGEKSDDNLVVDVSNEDPSSPRGSPAHSPRENGLDKTRLLKKDAPISPASIASSSSTPSSKSKELSLNEKSTTPVSKSNTPTPRTDAPTPGSNSTPGLRPVPGKPPGVDPLASSLRTPMAVPCPYPTPFGIVPHAGMNGELTSPGAAYAGLHNISPQMSAAAAAAAAAAAYGRSPVVGFDPHHHMRVPAIPPNLTGIPGGKPAYSFHVSADGQMQPVPFPPDALIGPGIPRHARQINTLNHGEVVCAVTISNPTRHVYTGGKGCVKVWDISHPGNKSPVSQLDCLNRDNYIRSCRLLPDGRTLIVGGEASTLSIWDLAAPTPRIKAELTSSAPACYALAISPDSKVCFSCCSDGNIAVWDLHNQTLVRQFQGHTDGASCIDISNDGTKLWTGGLDNTVRSWDLREGRQLQQHDFTSQIFSLGYCPTGEWLAVGMENSNVEVLHVTKPDKYQLHLHESCVLSLKFAHCGKWFVSTGKDNLLNAWRTPYGASIFQSKESSSVLSCDISVDDKYIVTGSGDKKATVYEVIY [TLE4] | -0.00686 | -0.13
MSGRSVRAETRSRAKDDIKKVMAAIEKVRKWEKKWVTVGDTSLRIFKWVPVTDSKEKEKSKSNSSAAREPNGFPSDASANSSLLLEFQDENSNQSSVSDVYQLKVDSSTNSSPSPQQSESLSPAHTSDFRTDDSQPPTLGQEILEEPSLPSSEVADEPPTLTKEEPVPLETQVVEEEEDSGAPPLKRFCVDQPTVPQTASES [BCL7B] | 0.295 | 0.0126
SIPA1L2 | -0.433 | 0.275
MADLHRQLQEYLAQGKAGGPAAAEPLLAAEKAEEPGDRPAEEWLGRAGLRWTWARSPAESAAAGLTCLPSVTRGQRLAAGGGCLLLAALCFGLAALYAPVLLLRARKFALLWSLGSALALAGSALLRGGAACGRLLRCEEAPSRPALLYMAALGATLFAALGLRSTLLTVLGAGAQVAALLAALVGLLPWGGGTALRLALGRLGRGAGLAKVLPV [SFT2D3] | -0.165 | -0.136
